Measurements as given in paper PMC4133393.

Molecular target: (his)6CfaB, mature CfaB (residues 24–170) with N-terminal hexahistidine tag (enterotoxigenic E. coli (ETEC)) (UniProt E3PPC4)
Assay: pull-down

Chain of UniProt E3PPC4 (E3PPC4 24-170): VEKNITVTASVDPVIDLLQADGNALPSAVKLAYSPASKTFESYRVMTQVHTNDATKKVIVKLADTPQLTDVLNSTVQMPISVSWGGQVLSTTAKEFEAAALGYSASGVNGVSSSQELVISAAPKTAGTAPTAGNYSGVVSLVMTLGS

Substance | CfaA/CfaB ratio
CfaA (20–238) K9A (natural protein) | 0.64
CfaA (20–238), wild type, untagged (pETDuet-1-cfaA) (natural protein) | 0.66
